This series is described as follows: label from the status in PepcDB records.
For the sequence “MKKLAISIGDINSIGLEILVRSHEELSKICTPFYFIHESLLNKALKLLNLKLFNAKIVAFKDDKDYEFNFIKKENSLEIYSFCLPLGFKVDENFEIQAGEIDAKSGLYGFLSFKAASYFVYEKHAHALLTLPIHKKAWEDAGLKYKGHTDALRDFFKKNAIMMLGCKELFVGLFSEHIPLAKVSKKITFKNLSIFLKDFYKETHFKKMGLLGFNPHAGDYGVIGGEEEKIMEKAIAFVNAFLHSKKDEKFFKKALKDENLQKELLLNFKGKGVYLPYPLVADTAFTKTGLKNCNRLVAMYHDLALAPLKALYFDKSINVSLNLPIIRVSVDHGTAFDKAYKNAKINTKSYFEAAKFAINLHSKA”, the protein production result is listed as “not failed”. The same measure for “MKREGNMTLLVRNFIVSIALAISDFFSFVISLYLAIGVLSITISDYETVISVNQLEGWKALHWLLGLCCIAWYSMRLRHYFYRKTFWFELKEILRTLVIFAIIEIAVMAFASWSFSRYLWVLTWFFVLLLVPLARMVTKRVLDVFGLWHRDTWIIGSGANAQEAYKAINSERNLGLVIVGFIAVTGERSENKDINGVPVLAHDPDWLSSMDKKTQFIVAVESHQSEVRNAWLRNFMIKGYRYISVIPTLRGMPLDSTDMSFIFSHEVMIFRVQQNLAKWSSRILKRAFDIVGSLAIIIILSPALIYISRKVKRDGGPSIYGHERIGKGGKSFKCLKFRSMVINSKEVLEKLLDSDSEAKKEWDATFKLKNDPRITKIGAFLRRTSLDELPQLFNVLKGEMSLVGPRPIITAELIRYNDEVDYYLLSKPGMTGLWQVSGRSDVDYETRVYLDAWYVKNWSMWNDIAILFKTISVVLKKDGAY”: “failed”. The same measure for “MRENSTKPPQPHISEPADVAESRFISVAIPTFRRPDTIRRAIDSVLHQDFSNWELIVSDDEGPDGQTWAMLTDYARADPRIRIVENRRGRGQVENTNNVMLACRGSWIKLLHDDDWLAPKALGTFAQVAQQYPSAAFITCATNRVEDDRVKLRSARPGKKHVTVCSSQQTLKDLYLVRTTRSFGIIPSSLLVNSIVVQNGCLMRTYKSITAGVDQLFFIDLARHGDMVMIEDGLIFYDATNHSSVTASTTFDDVDRETIDLKHLTWSLIEDKHELPDPETIAGALQVARLRSRFRHQPWGSTIRHALQIFHPSVTKAVNQDIFARVQAVLRRRLRRTNW”: “failed”. As for “KDADHIHHLIDQSLIAKGFQEILTNSLTKGAYNELLSKQEDAVPILNKLSEELAFMRPSLAFTGLETVAYNINRRQKNLKLFEWGKVYFKRGTKYNEYNRLSVFITGNQHAESWNTPSKTVDFFDMKAVVVQILEKLHIAVTQVQEIESNPLFSKGVIYKHAGKELVQFGYISQAALKATDVKQEVLFADFNADLLLELYSNKSKYKEIS”, the protein production entry is listed as “not failed”. The same measure for “MPVCWSHRSDSRPASNATPLSGPVGWAHQAAPLQRLLHGTAPVILSPALEPPQHKDPAMPKLASIHLYPIKSTAGMPLTRALVTEEGLQGDRRYMVVKPDGSFITARTHPQLQQVVATPIEGGLQLRYPGLDPLILQEREFSRTPRATGVWSDSFSALQTQPQADQWLSQVAGEPVQLLWLGEESARFREKTGTRVSFADGYPLLLISQASLEDLNLRSDALHQMSQFRTNLVASGTLPFEEDGWKRIRIGEVEFRVAKPCSRCIMTTVEPGTDRFNALKEPLATLTRYRRGEDGEVYFGQNLVALNEGWIEAGSEIEVLERARAPVYPNAAPKKRELVCVAREPLARDLETFWFEAADGEPLPDYLPGQHLPISLDIGLGLRRERLQRRYTLSSTPERPERYSISVKKVGGGRISHWLHQQLQPGDRLLAAAPAGEFHLGTGRSLLLLSAGSGVTPMLSIARTLALRGELGDVHFMHLCRSEADIPAAGELHALAQQGMTLTLILSQPDTHWQGLKGRLGDDHLKQVKQLAEREVFICGPHGFMADAAARLVALGVPAERIRQESFGGAILSVARPHQAVQLRIGKQSFAGNNQGTVLDQAHKQGVDLPWSCRAGICGSCKQTLLEGEVDHPDAPAITAAERAEGKILTCCAVPLTDLVIK”: “failed”. As for “MNGRMSLFLRNSIGVMAAMLAGVATPVANAMDNSLASGVVRFALDTGEASSVVGLAMKLEGESADYLQARLMLASGQHDEARAGFEGVFNGASHRGEAALALAEMAQEDGDLTGAENWYQQARRTGYGEVAQKALLGLAELVRIQGKTDAAGQYLARMEDGYWAAVGYMNLAADFARDDLDSSRALVSLRVAMAMAAKDTDTSRSRALLDQLNLRAGYLALGSDDYDKAIDFLEKVSLESYHTPQALYLHGLALSSKGNHRAAMQSWHRAKKFPLAFPGVSDAWIGMGRGYDLSGYPGQAGESWLAANAAYEGERVTLGKLSERITAEGAYKALVQDARSDDIQWFLADNRTLTQPRMAYLLRFMEEPGAQVAVRRVARLDEMVATLDASKYNLEVFIQALEVFMASAGSGGVAPQTAGLEQQQSDLESRLNGLVEQAATPAQVAELRQLKQSLAGAGRRMGALNQQVVQRPERLETVLDDAGALRDATKDLRYKTLSLREQAARELDALALAFVKKQTQRMTHALDKTEQQIAHLYEYLALENLGEGAQ”, the entry is “failed”; as for “MILSIDSNDANTAPLHKKTISSLSGAVESMMKKLEDVGVLVARILMPILFITAGWGKITGYAGTQQYMEAMGVPGFMLPLVILLEFGGGLAILFGFLTRTTALFTAGFTLLTAFLFHSNFAEGVNSLMFMKNLTISGGFLLLAITGPGAYSIDRLLNKKW”, “failed”; as for “MASWPYCNHKRGLNGYGVFFSIFFGSGAYNAPVRIAVLADIHGNADALRAVLKDAAEQGAERLIVNGDVVNRGPDSVQVMEELLARDDTSFVLGNHDDLLRLWHTRSDKLPQDWYDDPFWGATAWSTEQLHAAGLLDVPGDWPLTARLSVPGLPDVLLAHGTPDDYRRGLSERTDPALVRRIADESGAGVLVGSHIHRQADALVGGVRVLNTGAVGSPADGDPRAQYLLLTATPQGWQTELRRVPYDRSGVLQRFETSGLLDTGLSARIFRDELVTARSLYTPYWEWTETGGCPRDTASWEQFAQDWT”, “failed”.

As for “MDLLAMNIPVSLQSKPPLWLLAELTYRCPLQCAYCSNPLDYAAVKQELSTDEWKDVFRQARAMGSVQLGFSGGEPLLRQDLSELIKYAHELGFYTNLITSGIGLTEQKIAEFSEAGLDHIQISFQASDPALSEILSGSRKAFQQKQAMALAVKKHRYPMVLNFVIHRFNIEQIDQIIELSLELNADYVELATCQFYGWAKLNQAALLPTPEQISYAQARVQAYRQYIDQHHLKTKLLLVAPDYYQERPKKCIGGWGQIFITVSPDGTVLPCQSAKDLPLEFPTIQDQSLKTIWNEAFAFNAFRGTDWMQEPCRSCPDKDKDLGGCRCQAYMLTKNMYATDPVCSKSPVHHQIVEARLQTQCSKPDISDLKLRNPQNSKLFFKRASDADSLL”, the protein production result was “failed”. The same measure for “MQGNALTILLSGKKYLLLQGPMGPFFNDVAEWLESLGRNAVNVVFNGGDRFYCRHRQYLAYYQTPKEFPGWLRALHRQYDFDTILCFGDCRPLHKEAKRWAKSKGIRFLAFEEGYLRPQFITVEEGGVNAYSSLPRDPDFYRKLPDMPAPHVENLKPSTMKRIGHAMWYYLMGWHYRHEFPRYRHHKSFSPWYEARCWVRAYWRKQLYKVTQRKVLPRLMNELDQRYYLAVLQVYNDSQIRNHSNYNDVRDYINEVMYSFSRKAPKESYLVIKHHPMDRGHRLYRPLIKRLSKEYGLDERVIYVHDLPMPELLRHAKAVVTINSTAGISALIHNKPLKVMGNALYDIKGLTYQGHLHQFWQADFKPDMKLFKKFRGYLLVKTQVNGGYYGGVKFENALGMNKDFLFGSKSIS”: “failed”; for “MGHHHHHHSHSLDSQKGQLVRGKVCEYSTDGAYIDIGGKAPAFLPKREAALHAVLDLEAHLPKDEELEFLVIRDQNEDGQVTVSLRALALEQAWTRVAELQEG”: “not failed”; for “RTKDQYYELRDFALGTSVRIVVSSQKINPRTIAEAILEDMKRITYKFSFTDERSVVKKINDHPNEWVEVDEETYSLIKAACAFAELTDGAFDPTVGRLLELWGFTGNYENLRVPSREEIEEALKHTGYKNVLFDDKNMRVMVKNGVKIDLGGIAKGYALDRARQIALSFDENATGFVEAGGDVRIIGPKFGKYPWVIGVKDPRGDDVIDYIYLKSGAVATSGDYERYFVVDGVRYHHILDPSTGYPARGVWSVTIIAEDATTADALSTAGFVMAGKDWRKVVLDFPNMGAHLLIVLEGGAIERSETFKLFERE”: “not failed”. As to “MKYDVVVVGSGVAGPIVARDVAKAGFSVLLVDKKPAIGTPKQCAEGINVNVFKEFDIPYDKRFINREIYGARIYSPSGYTAELRYDKVSGVILERKVFDKMLAYYAAKAGADVWARTEVIDLLRKEGKIMGVKAKHEGELVEIEAKIIVAADGVESTVARLAGINTYAPPHEFDSAYEYEMIIEGYDPDLIHLWFGNEIAPRGYVWVFPKDEDRANVGIGINSDNEKTAKYYLDKWLKENNIPTKKILEINVGLVPVGGFVRELVKENVAVVGDAARQVNPVHGGGMYEAMKAANILAKWIVKALEEENLELLKNYTKEWWEVEGPKMERLLKLRRAMEKLTDEDIDVFVQLLGGTDLEKLAGGNYFEVVKALMKHPKVLMSKRRLEILKALL”, the protein production entry was “not failed”. As for “MGTMNVVGLAIYLYAGFLSFIFGFISLYAFIKYSKLERKNKEIIYVYVDNLKNFSPYMFYSILLTFTIVFVIFALFICFVFNFDLYLGLTMLFSYFLIIYLFCFKKYRVEIYKDGFYGVFQN”, the entry is “failed”; as for “MADPTSSERLLVTAALPYANGPIHIGHLAGAYLPADLFVRYQRLKGEDVAFICGSDEMGVAILMRAIREDRTPEDIIDTYHPQIRDNFERFGMSFDYYGRTSSETHTETTQDFFRVLDENGGFDLKTDEQLYDPEAEMFLADRFVIGTCPVCGFEEAYGDQCEQCGSSLSPTELENPQSTLTDATPEFKETTHWYLPLGELQPQLEEWIGSHPEWKNNVVGQIQSWFDEGLKGRAITRDVLWGVPVPDDVAERHGLEAEGKVIYVWFDAPIGYISATKEWAAEQGEPDAWTDYWQDEDTRLVHFIGKDNIVFHCLMFPSMLMEHGDYVLPDNVPANEFLNLEGEKLSTSRGWAVWLHEYLDDFADERHAPDLLRYALATTLPETKDADFSWEGFQQRVNGELANVFGNFVHRTLTFAQRYFDGTVPPLEDPSEADRVMLDRMAEVPDTVGAAYEEHRTRDAVFETMALARRGNKYFNDTEPWHTHESDPQACANTIHVSLQVCAALSILFEPVLPSAAATLRERIGLENVRTSTPDDDPAGAVGWEDAGAPLLPAGHPIPSGPDPEPLFQKIDDDTIEAQIEKLRDRAAERDTDPSSTTDMDYEALSDNISFDDFTQLDLRAGTVTTAEPVPDADKLLRLEVDLGFEERQILAGVAEQMAPDDVVGLEVVVVANMAPKEMFGFESQGMVLMAEEPDGTFVPVTTEAEDGSVVR”, “failed”; as for “MTKYKVALFDLDNTLLKTEDASVAALTYALNQDGVEVTPQAIVELMGLPGIDMARELGSSNPAKTIDIFNERINQEVDLIKEYDGIDEMFAGLRELGIEYGIVTSKLRRVFDDEMRSFPKIRAIEKVVLSDDTKKHKPHADPIEFGMQKYFPKLNRADVIYVGDSLFDMQSAHAAGVDFANAGWGAIPANDFSEAEYILKTPTDLLEIV”, “failed”. The same measure for “MMNNMDSIINYIYEGDYFIVTSHISPDGDNIGSTLSMYYTLKNLGKNVYYVLDDEAPLNLRFLVEGVKIYKSNEFNMKNYSLIALDCGDKMRICVSDEIKNNASKLICIDHHASNDSYGDLNYVDIDASSTCELVYNLLVRFQQIKDINIINEDIATCLYTGLVTDTGNFSYSNVHASSFEMAKNLLVLGAQKNTIIQNIYQSN”: “failed”; for “MEKLLTVFTPTYNRVHTLHKCYESLKNQSCKDFKWLIIDDGSTDGTKDVVKRWIHEKNDFEITYIYQSNKGMHGAHNTAYENIDTELNICIDSDDYMPRDAVEKINKNWNRVKHNKKISGLVGLDSYENGDVIGKKFPEGLKEATLFEINNKYKIPGDKKLVYRSELTKKFPYPIFEGEKYVGLAYKYYKLDEEHRLALINDILCVVEYLEDGSSKNMIKQYKNNPKGFAFYRIENIKNSKATLKFKFKESIHYVASSFISKNKNFLIESPEKILTLLSIPMGMLLYLYIKIKG”: “failed”.

The values above are taken from a protein production outcome set (Wang et al. 2014).
